Laboratory results reported in patent US20030130324A1, “METHOD FOR PREVENTING OR CONTROLLING CATARACT” (priority 1993, published 2003).

Legend:
[1] = tested on: lens epithelial explants; assay: Lens epithelial explants cultured on laminin substratum with TGFβ and/or FGF; type: cell-based, rat; conditions: explants from 21-day-old rats, TGFβ 20 ng/ml, in the presence or absence of FGF 2 ng/ml, 5 day culture
Description: (§1) Each experiment involved culturing explants for up to 5 days without added growth factors (controls), with TGFβ, with a combination of TGFβ and FGF (TGFβ/FGF), or with FGF alone. FGF is another growth factor that influences lens cell behaviour (Chamberlain and McAvoy, 1989; McAvoy et al., 1991). In some experiments, explants were prepared by a standard method used in our laboratory in which the adhering capsule serves as the substratum for the cells. In others, explants were inverted onto a laminin substratum. The latter method allows cell attachment, spreading and migration to be monitored as well as providing good visualisation of individual cells.
Bovine brain basic FGF was prepared and stored at −20° C. as described by Chamberlain and McAvoy (1989). Ultrapure natural human TGFβ1 was obtained from Genzyme (Cambridge, Mass.) and stored at −80° C. Working stock solutions of TGFβ and FGF were prepared (in culture medium or 1% bovine serum albumin—0.5 M NaCl in phosphate-buffered saline, respectively) and centrifuged at 10,000 g for 10 min at 4° C. just before use.
This method is as described by Hales et al (1992) Briefly, on the day before the experiment, culture dishes were pre-coated with laminin. […] Responses were monitored daily by phase contrast microscopy.

[2] = tested on: lens epithelial explants; assay: Influence of TGFβ alone and in combination with FGF on lens epithelial explants (standard method); type: cell-based, rat; conditions: TGFβ 20 ng/ml, up to 5 days culture; summary of Example 1
Description: Lens explants were prepared from both postnatal and adult rats and changes during 5 days culture with growth factor(s) were monitored by light and electron microscopy, immunolocalisation of laminin, heparan sulphate proteoglycan and fibre-specific crystallins, and crystallin ELISAs.
as §1, with “individual cells. […]” for “individual cells.”
Explants used for immunofluorescent localisation were collected at the end of the culture period, fixed in Carnoy's fixative for 20 min at room temperature, transferred to 70% ethanol, then covered with a drop of melted 2.5% agar, before dehydrating in ethanol and embedding in paraffin. […] Controls for non-specific fluorescence were included routinely, that is, sections were treated with non-immune rabbit serum instead of specific antibody. […]

[3] = tested on: TGFβ-induced cataract-like changes in rat lens epithelial explants; assay: Explant study using α2-macroglobulin to inhibit TGFβ-induced cataract-like changes; type: cell-based; set-up: key to cataract-like changes: extent of spindle-like elongation: −, negligible change or reverted to predominantly epithelial morphology; +-++++, indicates extent of spindle-like elongation; +-++++, indicates extent of spindle-like elongation; +-++++, indicates extent of spindle-like elongation; +-++++, indicates extent of spindle-like elongation; †-††††, indicates extent of cell loss; †-††††, indicates extent of cell loss; †-††††, indicates extent of cell loss; †-††††, indicates extent of cell loss; o, elongation assessment was invalidated by cell loss
Description: α2-macroglobulin prepared from bovine plasma was obtained from Boehringer Mannheim Australia (Castle Hill, NSW; #602 442). Lens epithelial explants (2 per culture dish) were prepared from 21-day-old rats as described previously (See Example 1, Standard Method). α2-macroglobulin was dissolved in culture medium (defined in Example 1) at a final concentration of 400 μg/ml. The solution was sterilised by passing through a 0.22 μm filter and a portion was diluted with an equal volume of sterile medium. These solutions were equilibrated at 37° C. in 5% CO2/air before use. A stock solution containing 25 pg/10 μl TGFβ2 (Genzyme, Cambridge, Mass.) was prepared in sterile medium. Six treatment groups were then set up by replacing medium in culture dishes containing explants with 1 ml medium or 1 ml medium containing 200 or 400 μg/ml α2-macroglobulin, with or without added TGFβ, as indicated in Table 2. Explants were cultured and monitored for cataract-like changes by phase contrast microscopy. In particular, each explant was graded according to the extent of spindle-like elongation and cell death, which are characteristically observed in explants cultured with TGFβ (See Examples 1 and 2). Explants were photographed on days 3-5.

[4] = Day 4, TGFβ2 25 pg/ml, α2-MG 200 μg/ml
[5] = Day 4, TGFβ2 25 pg/ml, α2-MG 400 μg/ml
[6] = Day 5, TGFβ2 25 pg/ml, α2-MG 200 μg/ml
[7] = Day 5, TGFβ2 25 pg/ml, α2-MG 400 μg/ml

Molecule: TGFβ: Ultrapure natural human TGFβ1 obtained from Genzyme (Example 1)
- cell spreading and migration onto laminin substratum [1]: inhibited spreading and migration
- cell elongation in explants [2]: extensive and rapid elongation
- other TGFβ-induced cataract-like responses in explants [2]: induced accumulation of extracellular matrix, capsule wrinkling, cell death by apoptosis and distinctive arrangements of cells

B1: α2-macroglobulin (protein, UniProt Q7SIH1 24-1510, looked up)
Alpha-2-macroglobulin: SVSGKPQYMVLVPSLLHTETPEKGCLLLSHLNETVTVSASLESVRENRSLFTDVVAEKDLFHCVSFTLPRSPTSQEVMFLTIQVKGPTQEFKKRTTVLVKNEESLVFVQTDKPIYKPEQTVKFRIVLLDESFHPLNELVPLVYVEDPKGNRIAQWQNLEVENGLQQLTFPLSSEPFQGSYKVVVQKGSGGTAEHPFTVEEFVLPKFEVQVRMPKIITILEEEVQVSVCGLYTYGKPVPGRVTMNMCRKYRNPSNCYGEESNAVCEKFSGELNNEGCFSQQVNTKIFQLKRQEFEMKIEVEAKIQEEGTEVELTGKGATEITTTITKLSFVTVDSNLRRGIPFTGKVLLVDGKGVPMPNKVIFITANEANHNSNTTTDEHGLAQFSITTTKIKGTSLSIRVKYKDHSPCYGYQWLSEEHQDAYHSANLVFSRSNSFVYLEPLPRELPCGKTQTVQAHYVLKGQVLKDLKELVFYYLIMAKGGIVRSGTHTLPVEQGDMQGHFSMSVPVESDIAPVARLLIYAILPDGEVVGDSARYEIEHCLANKVGLNFSPGQSFPASQAHLRVTASPQSLCALRAVDQSVLLMRPEAELSAATVYNLLPVKDLSSFPSSVNQQEEDNEDCISHDNVYINGIMYFPVSNTNEKDMYSFLQDMGLKAFTNSKIHKPKICPQPEEHRIQHHTLLASPVRAEMGRNRDFVHFDDTSEPPTETVRKYFPETWIWDLVVVSSSGVHEVEVTVPDTITEWKAGALCLSRDTGLGLSPTASLRVFQPFFVELTMPYSVIRGEAFTLKATVLNYLPKCIRVSVQLEASPAFLAVPEKEQETYCICGNGRQTVSWAVTPKSLGNVNFTVSAEAVESQELCGSEVPVVPEHGRKDTIIKPLLVEPEGLEKEVIFNSLLCPSVDFVFLGAEDGGQVLRHFPPAAATDTAADAHDPARPGAKVSESLSLKLPPNVVEESARASFSVLGDILGSAMRNTQNLLQMPYGCGEQNMARFAPNIYVLDYLNETQQLTAELKSKAILYLNTGYQRQLLYKHFDGSYSTFGEHRGNSEGNTWLTAFVLKSFAQARGYIFIDEAHITEALTWLAQKQKSNGCFRSTGTLLNNAIKGGVDDEVTLSAYITIALLEMPLPVTHPVVRNALFCLDSAWKSAKEGSQGSHVYTKALLAYAFALAGNQERRTEVLTSLYEEAVKEDNTIHWTRPQKPRLLTEDIYQPRAPSAEVEMTAYVILAHVTAQPAPNPEDLKRATSIVKWISKQQNCQGGFSSTQDTVVALHALSRYGAATFTSARKAAQVTIQSSGTFSTKFQVENSNRLLLQQVSLPEVPGEYSMSVTGEGCVYLQTSLKYNILPKKDEFPFALEVQTLPQTCDGPKAHTSFQISLSVSYIGSRPASNMAIVDVKMVSGFIPLKPTVKMLERSNVSRTEVSNNHVLIYLDKVTNETLTLTFTVLQDIPVRDLKPAIVKVYDYYETDEFAVAEYSAPCSKDIGNA
notes: α2-macroglobulin prepared from bovine plasma, Boehringer Mannheim Australia #602 442
- cataract-like changes: extent of spindle-like elongation ([3]; Day 2, TGFβ2 0 pg/ml, α2-MG 200 μg/ml): −
- cataract-like changes: extent of spindle-like elongation ([3]; Day 2, TGFβ2 0 pg/ml, α2-MG 400 μg/ml): −
- cataract-like changes: extent of spindle-like elongation ([3]; Day 2, TGFβ2 25 pg/ml, α2-MG 200 μg/ml): −
- cataract-like changes: extent of spindle-like elongation ([3]; Day 2, TGFβ2 25 pg/ml, α2-MG 400 μg/ml): −
- cataract-like changes: extent of spindle-like elongation ([3]; Day 3, TGFβ2 0 pg/ml, α2-MG 200 μg/ml): −
- cataract-like changes: extent of spindle-like elongation ([3]; Day 3, TGFβ2 0 pg/ml, α2-MG 400 μg/ml): −
- cataract-like changes: extent of spindle-like elongation ([3]; Day 3, TGFβ2 25 pg/ml, α2-MG 200 μg/ml): + (+-++++, indicates extent of spindle-like elongation)
- cataract-like changes: extent of spindle-like elongation ([3]; Day 3, TGFβ2 25 pg/ml, α2-MG 400 μg/ml): + (+-++++, indicates extent of spindle-like elongation)
- cataract-like changes: extent of spindle-like elongation ([3]; Day 4, TGFβ2 0 pg/ml, α2-MG 200 μg/ml): −
- cataract-like changes: extent of spindle-like elongation ([3]; Day 4, TGFβ2 0 pg/ml, α2-MG 400 μg/ml): −
- cataract-like changes: extent of cell loss [3, 4]: † (†-††††, indicates extent of cell loss)
- cataract-like changes: extent of spindle-like elongation [3, 4]: + (+-++++, indicates extent of spindle-like elongation)
- cataract-like changes: extent of cell loss [3, 5]: † (†-††††, indicates extent of cell loss)
- cataract-like changes: extent of spindle-like elongation [3, 5]: + (+-++++, indicates extent of spindle-like elongation)
- cataract-like changes: extent of spindle-like elongation ([3]; Day 5, TGFβ2 0 pg/ml, α2-MG 200 μg/ml): −
- cataract-like changes: extent of spindle-like elongation ([3]; Day 5, TGFβ2 0 pg/ml, α2-MG 400 μg/ml): −
- cataract-like changes: extent of cell loss [3, 6]: † (†-††††, indicates extent of cell loss)
- cataract-like changes: extent of spindle-like elongation [3, 6]: −
- cataract-like changes: extent of cell loss [3, 7]: † (†-††††, indicates extent of cell loss)
- cataract-like changes: extent of spindle-like elongation [3, 7]: −
- inhibition of TGFβ-induced changes ([3]; TGFβ2 25 pg/ml, α2-macroglobulin 200 or 400 μg/ml, days 2-5): substantially inhibited
- changes in explants cultured without TGFβ ([3]; medium containing α2-macroglobulin 200 or 400 μg/ml, no TGFβ, throughout the culture period): No significant changes
